Patent publication US20130251703A1 (Novartis, published 2013)

Tests used:
[1] = biological target: T1, HER3 D2: CD33-[Human HER3, residues 185-329]-TAG (human, UniProt P21860 185-329); assay: HER3 domain binding ELISA: recombinant protein coated on the plate, antibody titrated; the y axis reads 'Fluorescence Units'
T1 construct: also called D2-Tag; domain 2; not shown: C-terminal TAG (e.g. FLAG TAG)
Method: (§1) All wells were then washed with PBS/0.1% Tween-20, blocked with PBS/1% BSA/0.1% Tween-20 and washed with PBS/0.1% Tween-20. Anti-HER3 antibodies were added to the relevant wells up to a final concentration of 10 μg/mL and incubated at room temperature. Plates were washed with PBS/0.1% Tween-20 prior to the addition of the appropriate peroxidase linked detection antibody diluted 1/10000 in PBS/1% BSA/0.1% Tween-20. The detection antibodies used were goat anti-mouse (Pierce, 31432), rabbit anti-goat (Pierce, 31402) and goat anti-human (Pierce, 31412). Plates were incubated at room temperature before washing with PBS/0.1% Tween-20. 100 μl TMB (3,3′,5,5′ tetramethyl benzidine) substrate solution (BioFx) was added to all wells before stopping the reaction with 50 μl 12.5% H₂SO₄. […] Where appropriate, dose response curves were analyzed using Graphpad Prism.

[2] = biological target: T2, HER3 D1-2: CD33-[Human HER3, residues 20-329]-TAG (human, UniProt P21860 20-329); assay: as above
T2 construct: also called D1-2-Tag; domains 1 and 2; not shown: C-terminal TAG (e.g. FLAG TAG)
Method: as §1

[3] = biological target: T3, Hu HER3: CD33-[Human HER3, residues 20-640]-TAG (human, UniProt P21860 20-640); assay: solution equilibrium titration (SET), IgG, ECL read-out
T3 construct: also called hu HER3-Tag; HER3-Tag; not shown: C-terminal TAG (e.g. FLAG TAG)

[4] = biological target: T4, Mu HER3: CD33-[Murine HER3, residues 20-643]-TAG (mouse, UniProt Q61526 20-643); assay: as above
T4 construct: also called mu HER3-Tag; not shown: C-terminal TAG (e.g. FLAG TAG)

[5] = biological target: T5, Cyno HER3: CD33-[Cyno HER3, residues 20-643]-TAG (cynomolgus monkey, UniProt G7PIG5 20-643); assay: as above
T5 construct: also called cy HER3-Tag; not shown: C-terminal TAG (e.g. FLAG TAG)

[6] = biological target: T6, Rat HER3: CD33-[Rat HER3, residues 20-643]-TAG (rat, UniProt Q62799 20-643); assay: as above
T6 construct: also called ra HER3-Tag; not shown: C-terminal TAG (e.g. FLAG TAG)

[7] = biological target: T7, human HER3 endogenously expressed on human cancer cells (SK-Br-3, BT-474, MCF7) (human, UniProt P21860 20-1342); assay: cell-based or functional assay
[8] = biological target: T7, human HER3 endogenously expressed on …; assay: cell-based or functional assay; remark: listed apart in the source
[9] = biological target: T7, human HER3 endogenously expressed on …; assay: cell-based or functional assay; remark: listed apart in the source
[10] = biological target: T7, human HER3 endogenously expressed on …; assay: FACS titration of IgG on SK-Br-3 cells (endogenous HER3)
Method: The binding of antibodies to endogenous human antigen expressed on human cancer cells was accessed by FACS. In order to determine antibody EC₅₀ values SK-Br-3 cells were harvested with accutase and diluted to 1×10⁶ cells/mL in FACS buffer (PBS/3% FBS/0.2% NaN₃). 1×10⁵ cells/well were added to each well of a 96-well plate (Nunc) and centrifuged at 210 g for 5 minutes at 4° C. before removing the supernatant. Serial dilutions of test antibodies (diluted in 1:4 dilution steps with FACS buffer) were added to the pelleted cells and incubated for 1 hour on ice. The cells were washed and pelleted three times with […] FACS buffer. PE conjugated goat anti-human IgG (Jackson ImmunoResearch) diluted 1/200 with FACS buffer were added to the cells and incubated on ice for 1 hour. Additional washing steps were performed three times with 100 μL FACS buffer followed by centrifugation steps at 210 g for 5 minutes at 4° C. Finally, cells were resuspended in 200 μL FACS buffer and fluorescence values were measured with a FACSArray (BD Biosciences). The amount of cell surface bound anti-HER3 antibody was assessed by measuring the mean channel fluorescence.

Binder	Kd [3] [nM]	Kd [4] [nM]	Kd [5] [nM]	Kd [6] [nM]	BT474 pHER3 % inhibition [7] [%]	BT474 pHER3 IC50 [7] [pM]	MCF7 pHER3 % inhibition [7] [%]	MCF7 pHER3 IC50 [7] [pM]	SK-Br-3 pHER3 % inhibition [7] [%]	SK-Br-3 pHER3 IC50 [7] [pM]	BT-474 pAkt % inhibition [8] [%]	BT-474 pAkt IC50 [8] [pM]	SK-Br-3 pAkt % inhibition [8] [%]	SK-Br-3 pAkt IC50 [8] [pM]	BT-474 proliferation % inhibition [9] [%]	BT-474 proliferation IC50 [9] [nM]	MCF7 proliferation % inhibition [9] [%]	SK-Br-3 proliferation % inhibition [9] [%]	SK-Br-3 proliferation IC50 [9] [nM]	EC50 [10] [nM]	other results
MOR12615 (antibody, human IgG1, lambda, V domains shown, Tested as IgG) VH: QVQLVQSGAEVKKPGASVKVSCKASGYTFTSYDIHWVRQAPGQGLEWMGRIDPYSGNTNYAQKFQGRVTMTRDTSISTAYMELSRLRSEDTAVYYCARGSFYTRDSYFDVWGQGTLVTVSS VL: DIALTQPASVSGSPGQSITISCTGTSSDVGTYNQVSWYQQHPGKAPKLMIYGVSKRPSGVSNRFSGSKSGNTASLTISGLQAEDEADYYCSSRDLIGHYVFGGGTKLTVLG	0.102	0.336	0.257	0.31	56	421	75	447	71	179	63	466	86	101	35	0.459	42	40	0.121		binding result [1]: no binding (tested: 10 µg/ml); binding result [2]: no binding (tested: 10 µg/ml); MCF7 pAkt % inhibition [8]: 78%; MCF7 pAkt IC50 [8]: 815 pM; MCF7 proliferation IC50 [9]: 2.54 nM
MOR14538 (antibody, human IgG1, lambda, V domains shown, Tested as IgG) VH: QVQLVQSGAEVKKPGASVKVSCKASGYTFTSYDIHWVRQAPGQGLEWMGRIDPYSGNTNYAQKFQGRVTMTRDTSISTAYMELSRLRSDDTAVYYCARGSFYTRDSYFDVWGQGTLVTVSS VL: QSALTQPASVSGSPGQSITISCTGTSSDVGTYNQVSWYQQHPGKAPKLMIYGVSKRPSGVSNRFSGSKSGNTASLTISGLQAEDEADYYCASADHSYHTVFGGGTKLTVLG	0.045	0.023	0.026	0.051			83	615	71	263								53	0.081	0.279	
MOR14537 (antibody, human IgG1, lambda, V domains shown, Tested as IgG) VH: QVQLVQSGAEVKKPGASVKVSCKASGYTFTSYDIHWVRQAPGQGLEWMGRIDPYSGNTNYAQKFQGRVTMTRDTSISTAYMELSRLRSDDTAVYYCARGSFYTRDSYFDVWGQGTLVTVSS VL: QSALTQPASVSGSPGQSITISCTGTSSDVGTYNQVSWYQQHPGKAPKLMIYGVSKRPSGVSNRFSGSKSGNTASLTISGLQAEDEADYYCSSATQKPDVTVFGGGTKLTVLG	0.21	0.22	0.14	0.285			73	200	69	97								48	0.047	0.179	
MOR14534 (antibody, human IgG1, kappa, V domains shown, Tested as IgG) VH: QVQLVQSGAEVKKPGSSVKVSCKASGGTFSSYAISWVRQAPGQGLEWMGLIIPRYGKARYAQKFQGRVTITADESTSTAYMELSSLRSEDTAVYYCARNWPYYYMDFWGQGTLVTVSS VL: EIVLTQSPATLSLSPGERATLSCRASQNIVFNLAWYQQKPGQAPRLLIYDASNRATGIPARFSGSGSGTDFTLTISSLEPEDFAVYYCQQTKNRPPTFGQGTKVEIKR	2.15	4	6.35	30			71	16	63	10								40	0.027	0.028	
MOR12606 (antibody, human IgG1, kappa, V domains shown, Tested as IgG) VH: QVQLVQSGAEVKKPGSSVKVSCKASGGTFSSYAISWVRQAPGQGLEWMGLIIPRYGKARYAQKFQGRVTITADESTSTAYMELSSLRSEDTAVYYCARNWPYYYMDFWGQGTLVTVSS VL: DIVLTQSPATLSLSPGERATLSCRASQNIVFNLAWYQQKPGQAPRLLIYDASNRATGVPARFSGSGSGTDFTLTISSLEPEDFAVYYCQQTKSKPSPTFGQGTKVEIKR	1.5	1.4	2.6	8.1	73	108	87	34	75	25	77	91	85	8	40	0.127	39	36			MCF7 proliferation IC50 [9]: 0.052 nM
MOR14533 (antibody, human IgG1, kappa, V domains shown, Tested as IgG) VH: QVQLVQSGAEVKKPGSSVKVSCKASGGTFSSYAISWVRQAPGQGLEWMGLIIPRYGKARYAQKFQGRVTITADESTSTAYMELSSLRSEDTAVYYCARNWPYYYMDFWGQGTLVTVSS VL: EIVLTQSPATLSLSPGERATLSCRASQNIVFNLAWYQQKPGQAPRLLIYDASNRATGIPARFSGSGSGTDFTLTISSLEPEDFAVYYCQQTKSKPSPTFGQGTKVEIKR	0.64	2	2.95	9.65			67	50	68	20								46	0.026	0.042	
